System: Escherichia coli TOP10
Experiment: shrunken log2 fold change of peptide-encoding DNA abundance (4.5 h post-induction vs induction); higher = less antimicrobial activity (less host growth inhibition)
Details: time post-induction: 4.5 h; library: site-saturation at positions 5, 18, 19, 20
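Further: peptides expressed intracellularly from a pBAD plasmid library in pooled LB shake-flask culture, induced with 0.3% L-arabinose, DNA abundance read by NGS, three biological replicates, DESeq2 with apeglm shrinkage.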

Sequence | shrunken log2 fold change
RRIRHRPPRLPRPRPRPAKFPRP | -0.139
RRIRLRPPRLPRPRPRPCQNPRP | -0.0404
RRIRGRPPRLPRPRPRPSRWPRP | 0.489
RRIRDRPPRLPRPRPRPWADPRP | -0.00486
RRIRYRPPRLPRPRPRPLARPRP | -0.265
RRIRMRPPRLPRPRPRPFNEPRP | -0.488
RRIRTRPPRLPRPRPRPHINPRP | -0.454
RRIRERPPRLPRPRPRPIDSPRP | -0.0823
RRIRPRPPRLPRPRPRPSNIPRP | -1.15
RRIRFRPPRLPRPRPRPSQDPRP | 0.0128
RRIRGRPPRLPRPRPRPPDDPRP | 1.34
RRIRKRPPRLPRPRPRPMLHPRP | 0.164
RRIRYRPPRLPRPRPRPITQPRP | -0.532
RRIRVRPPRLPRPRPRPDYPPRP | -0.177
RRIRKRPPRLPRPRPRPTICPRP | -0.0104
RRIRERPPRLPRPRPRPRQMPRP | -0.000582
RRIRDRPPRLPRPRPRPKYDPRP | 0.0612
RRIRQRPPRLPRPRPRPCQIPRP | -0.298
RRIRNRPPRLPRPRPRPASKPRP | 0.0111
RRIRFRPPRLPRPRPRPQDKPRP | -0.308
RRIRPRPPRLPRPRPRPQFNPRP | -0.5
RRIRIRPPRLPRPRPRPNNCPRP | -0.0753
RRIRTRPPRLPRPRPRPCLGPRP | -0.534
RRIRCRPPRLPRPRPRPSEIPRP | -0.321
RRIRWRPPRLPRPRPRPCMQPRP | 0.0574

Sequence | shrunken log2 fold change
RRIRWRPPRLPRPRPRPQEGPRP | -0.00127
RRIRHRPPRLPRPRPRPVIQPRP | -0.00152
RRIRFRPPRLPRPRPRPTTIPRP | -0.548
RRIRQRPPRLPRPRPRPWHAPRP | -0.106
RRIRARPPRLPRPRPRPSWHPRP | 0.0482
RRIRTRPPRLPRPRPRPLSRPRP | -0.45
RRIRCRPPRLPRPRPRPSWIPRP | -0.732
RRIRTRPPRLPRPRPRPHGYPRP | -0.267
RRIRWRPPRLPRPRPRPIMPPRP | -0.0977
RRIRCRPPRLPRPRPRPWLVPRP | -0.16
RRIRFRPPRLPRPRPRPVMKPRP | -0.189
RRIRTRPPRLPRPRPRPTWQPRP | 0.149
RRIRGRPPRLPRPRPRPLGNPRP | 0.17
RRIRLRPPRLPRPRPRPTDRPRP | -0.00223
RRIRQRPPRLPRPRPRPINEPRP | 0.0162
RRIRQRPPRLPRPRPRPRFVPRP | 0.165
RRIRARPPRLPRPRPRPHLWPRP | 0.645
RRIRLRPPRLPRPRPRPWYQPRP | -0.149
RRIRSRPPRLPRPRPRPDCNPRP | 0.265
RRIRPRPPRLPRPRPRPMLAPRP | 0.281
RRIRPRPPRLPRPRPRPHCIPRP | -0.325
RRIRRRPPRLPRPRPRPCQRPRP | 0.0494
RRIRPRPPRLPRPRPRPDVLPRP | -0.709
RRIRTRPPRLPRPRPRPGHCPRP | -0.0671
RRIRQRPPRLPRPRPRPFDEPRP | -0.153

Sequence | shrunken log2 fold change
RRIRCRPPRLPRPRPRPWHFPRP | -0.422
RRIRARPPRLPRPRPRPEFVPRP | 1.05
RRIRGRPPRLPRPRPRPNDAPRP | 0.0548
RRIRWRPPRLPRPRPRPTFAPRP | 0.327
RRIRIRPPRLPRPRPRPVLNPRP | -0.492
RRIRWRPPRLPRPRPRPGMFPRP | 0.281
RRIRDRPPRLPRPRPRPWEDPRP | 0.0111
RRIRNRPPRLPRPRPRPCSRPRP | -0.0877
RRIRCRPPRLPRPRPRPWERPRP | -0.118
RRIRDRPPRLPRPRPRPLDSPRP | 0.148
RRIRTRPPRLPRPRPRPCHTPRP | -0.166
RRIRMRPPRLPRPRPRPWVSPRP | -0.0423
RRIRNRPPRLPRPRPRPIFPPRP | -0.281
RRIRMRPPRLPRPRPRPCMYPRP | 0.051
RRIRYRPPRLPRPRPRPIPLPRP | -0.418
RRIRIRPPRLPRPRPRPCSKPRP | -0.267
RRIRWRPPRLPRPRPRPCIRPRP | -0.147
RRIRSRPPRLPRPRPRPEKRPRP | -0.0813
RRIRDRPPRLPRPRPRPKKLPRP | -0.0595
RRIRFRPPRLPRPRPRPVNNPRP | -0.316
RRIRKRPPRLPRPRPRPEDRPRP | 0.206
RRIRIRPPRLPRPRPRPWTTPRP | -0.102
RRIRNRPPRLPRPRPRPPLMPRP | -0.0745
RRIRQRPPRLPRPRPRPCIVPRP | -0.747
RRIRFRPPRLPRPRPRPVFRPRP | -0.362

Sequence | shrunken log2 fold change
RRIRFRPPRLPRPRPRPFMRPRP | 0.559
RRIRLRPPRLPRPRPRPQDAPRP | 0.0335
RRIRTRPPRLPRPRPRPAFFPRP | 0.0542
RRIRMRPPRLPRPRPRPPSWPRP | 0.245
RRIRVRPPRLPRPRPRPGCSPRP | 0.186
RRIRNRPPRLPRPRPRPIPCPRP | -0.0228
RRIRARPPRLPRPRPRPHCKPRP | 0.0852
RRIRFRPPRLPRPRPRPPPCPRP | 0.898
RRIRDRPPRLPRPRPRPLMSPRP | 0.101
RRIRVRPPRLPRPRPRPCFCPRP | -0.252
RRIRMRPPRLPRPRPRPPCSPRP | 0.489
RRIRPRPPRLPRPRPRPASWPRP | 0.362
RRIRKRPPRLPRPRPRPQVDPRP | 0.288
RRIRLRPPRLPRPRPRPGQYPRP | -0.0693
RRIRCRPPRLPRPRPRPRFSPRP | -0.289
RRIRIRPPRLPRPRPRPWQLPRP | -0.0817
RRIRLRPPRLPRPRPRPSQIPRP | 0.0199
RRIRFRPPRLPRPRPRPVQWPRP | 0.184
RRIRERPPRLPRPRPRPLPGPRP | -0.165
RRIRVRPPRLPRPRPRPTIMPRP | -0.411
RRIRQRPPRLPRPRPRPIDAPRP | 0.000655
RRIRPRPPRLPRPRPRPDFFPRP | -0.0853
RRIRRRPPRLPRPRPRPKGRPRP | 0.135
RRIRVRPPRLPRPRPRPPYSPRP | -0.384
RRIRKRPPRLPRPRPRPFGIPRP | -0.00674

Sequence | shrunken log2 fold change
RRIRDRPPRLPRPRPRPCKMPRP | -0.0957
RRIRARPPRLPRPRPRPMCHPRP | 0.294
RRIRCRPPRLPRPRPRPYCMPRP | -1.09
RRIRCRPPRLPRPRPRPLNCPRP | -0.279
RRIRCRPPRLPRPRPRPIDCPRP | -0.128
RRIRTRPPRLPRPRPRPSFKPRP | -0.465
RRIRQRPPRLPRPRPRPKWRPRP | 0.0839
RRIRQRPPRLPRPRPRPVYRPRP | -0.308
RRIRDRPPRLPRPRPRPLYAPRP | -0.122
RRIRQRPPRLPRPRPRPQVAPRP | -0.156
RRIRTRPPRLPRPRPRPTADPRP | 0.351
RRIRIRPPRLPRPRPRPIGPPRP | 0.0815
RRIRCRPPRLPRPRPRPKRPPRP | 0.158
RRIRVRPPRLPRPRPRPQDTPRP | -0.64
RRIRVRPPRLPRPRPRPSTFPRP | -0.479
RRIRERPPRLPRPRPRPWGIPRP | -0.234
RRIRTRPPRLPRPRPRPCLHPRP | -1.17
RRIRKRPPRLPRPRPRPPNKPRP | 0.289
RRIRSRPPRLPRPRPRPYYPPRP | -2.8
RRIRQRPPRLPRPRPRPQHQPRP | 0.26
RRIRKRPPRLPRPRPRPFICPRP | 0.0135
RRIRRRPPRLPRPRPRPRMQPRP | 0.372
RRIRWRPPRLPRPRPRPLFGPRP | 0.352
RRIRRRPPRLPRPRPRPGYCPRP | -0.0631
RRIRSRPPRLPRPRPRPHDTPRP | -0.156
